{
  "source": "paper PMC10341432",
  "about": "“Cross-Linking Mass Spectrometry on P-Glycoprotein” (International Journal of Molecular Sciences, 2023)",
  "binders": {"B1": {"name": "15D3 mouse monoclonal anti-Pgp antibody (antibody, V domains shown)", "VH": "EVKVVESGGVLVRPGGSLKLSCAASGFTFSRYTMSWVRQTPEKRLEWVATISSGGGNTYYPDSVKGRFTVSRDNAMSSLYLQMSSLRSEDTALYYCARYGAGDAWFAYWGQGTLVTVSA", "VL": "ELAMTQTPLSLPVSLGDQASISCRSSQSIVHSTGNTYLEWYLQKPGQSPKLLIYKVSNRFSGVPDRFSGSGSGTDFTLKISRLEAEDLGVYYCFQGSHFPRTFGGGTRLEIK", "notes": "mouse IgG1 constant part; IgG1; also called 15D3 mAb; source: hybridoma (ATCC HB-11342) supernatant or mouse ascites, purified (Protein G)"}},
  "key": {"[1]": {"biological_target": "T1, P-glycoprotein (human) on NIH 3T3 MDR1 cells after PNGase F treatment (Homo sapiens, UniProt P08183, all N-linked oligosaccharides removed from ECL1 by PNGase F)", "T1 construct": "P-glycoprotein (MDR1, ABCB1), human; N-glycans of ECL1 removed on living cells; also called Pgp; deglycosylated Pgp; source: NIH 3T3 MDR1 mouse fibroblasts, human Mdr1 gene-transduced; living cells treated with PNGase F (50, 100 or 200 U/mL)", "T1 sequence (P08183 whole entry)": "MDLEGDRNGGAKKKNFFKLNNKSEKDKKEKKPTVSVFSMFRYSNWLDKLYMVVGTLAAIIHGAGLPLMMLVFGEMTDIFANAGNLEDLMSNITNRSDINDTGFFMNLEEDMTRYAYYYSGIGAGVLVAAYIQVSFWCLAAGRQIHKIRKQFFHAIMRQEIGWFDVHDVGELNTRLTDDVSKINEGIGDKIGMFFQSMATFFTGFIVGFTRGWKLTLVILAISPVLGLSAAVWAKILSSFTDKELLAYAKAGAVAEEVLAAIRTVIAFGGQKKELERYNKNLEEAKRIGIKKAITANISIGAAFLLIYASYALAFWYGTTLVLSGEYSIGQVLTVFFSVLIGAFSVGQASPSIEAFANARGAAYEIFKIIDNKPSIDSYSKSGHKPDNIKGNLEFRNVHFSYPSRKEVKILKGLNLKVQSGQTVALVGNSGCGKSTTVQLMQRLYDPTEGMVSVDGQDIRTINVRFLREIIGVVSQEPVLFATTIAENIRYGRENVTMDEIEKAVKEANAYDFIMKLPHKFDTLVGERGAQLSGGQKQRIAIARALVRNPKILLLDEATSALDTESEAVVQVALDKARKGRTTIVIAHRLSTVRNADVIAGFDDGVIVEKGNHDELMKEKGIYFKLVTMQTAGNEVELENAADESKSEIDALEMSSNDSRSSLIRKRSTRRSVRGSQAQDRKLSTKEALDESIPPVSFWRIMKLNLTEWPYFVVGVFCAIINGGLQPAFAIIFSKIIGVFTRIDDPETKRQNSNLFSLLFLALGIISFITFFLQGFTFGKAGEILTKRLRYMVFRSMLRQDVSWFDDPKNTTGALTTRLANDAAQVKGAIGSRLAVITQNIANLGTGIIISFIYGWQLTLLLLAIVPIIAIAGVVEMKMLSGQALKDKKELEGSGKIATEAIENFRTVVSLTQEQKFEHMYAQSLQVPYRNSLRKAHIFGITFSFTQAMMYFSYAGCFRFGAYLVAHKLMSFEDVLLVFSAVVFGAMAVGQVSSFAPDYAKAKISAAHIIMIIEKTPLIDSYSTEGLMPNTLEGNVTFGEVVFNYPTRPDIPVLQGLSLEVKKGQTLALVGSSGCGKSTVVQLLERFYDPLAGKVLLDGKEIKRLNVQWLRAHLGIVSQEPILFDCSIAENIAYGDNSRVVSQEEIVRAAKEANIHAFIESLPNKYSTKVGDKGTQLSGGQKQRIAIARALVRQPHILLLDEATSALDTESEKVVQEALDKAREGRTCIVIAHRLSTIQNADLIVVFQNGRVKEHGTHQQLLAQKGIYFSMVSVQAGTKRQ", "assay": "flow cytometry on cells; living NIH 3T3 MDR1 cells treated with 0, 50, 100 or 200 U/mL PNGase F; 10 µg/mL 15D3 or UIC2 for 30 min at 37 °C in glucose-PBS; Alexa-488 anti-mouse goat secondary antibody", "conditions": "one partner purified"}, "[2]": {"biological_target": "T2, P-glycoprotein (human), as expressed on NIH 3T3 MDR1 cells (human, UniProt P08183, N-glycans on ECL1)", "T2 construct": "P-glycoprotein (MDR1, ABCB1), human; integral membrane protein on the cell surface; Cell line a gift from M. Gottesman; also called Pgp; multi-drug resistance protein 1; source: NIH 3T3 MDR1 mouse fibroblasts, human Mdr1 gene-transduced, stably expressing; on living cells and in membrane preparation (Mem-PER Plus kit)", "T2 sequence (P08183 whole entry)": "as above", "assay": "flow cytometry on cells; living NIH 3T3 MDR1 cells treated with 0, 50, 100 or 200 U/mL PNGase F; 10 µg/mL 15D3 or UIC2 for 30 min at 37 °C in glucose-PBS; Alexa-488 anti-mouse goat secondary antibody", "conditions": "one partner purified"}},
  "data": [
    {"binder": "B1", "values": [
      {"measurement": "binding result", "setting": "[1]", "value": "binds"},
      {"measurement": "binding result", "setting": "[2]", "value": "binds"}
    ]}
  ]
}
